Measured values taken from article doi:10.1101/2022.10.17.512557.

Biological target: proteasomal catalytic (20S) particle (rat (endogenous in cultured cortical neurons)) (UniProt P48004)
Assay: native gel or EMSA

Chain of UniProt P48004 (P48004 whole entry, looked up): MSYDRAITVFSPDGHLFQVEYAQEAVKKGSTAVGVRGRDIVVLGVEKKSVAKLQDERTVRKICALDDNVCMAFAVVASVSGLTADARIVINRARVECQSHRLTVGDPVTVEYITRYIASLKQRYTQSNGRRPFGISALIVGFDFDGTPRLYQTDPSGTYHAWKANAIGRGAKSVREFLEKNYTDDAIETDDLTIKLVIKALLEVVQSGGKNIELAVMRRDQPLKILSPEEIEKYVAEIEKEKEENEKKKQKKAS

proteasomal regulatory (19S) particle (from UniProt P62193 1-440) (complex)
percent of total 20S in the free 20S band (neurite fraction): 50%
